Measurements taken from the Immune Epitope Database (IEDB).
pIC50, pKd: −log10 of the molar value.

How the values were obtained:
HLA-A*02:01 [1] = test: IEDB peptide-MHC binding, purified MHC/competitive/fluorescence; ≥ and ≤ were set here for values at or beyond the usual limits of such assays
HLA-A*03:01 [2] = test: as above
HLA-A*11:01 [3] = test: as above
HLA-A*24:02 [4] = test: as above
HLA-B*39:01 = test: IEDB peptide-MHC binding, purified MHC/competitive/fluorescence; filed as Kd, often an IC50 or EC50 that approximates it; ≥ and ≤ were set here for values at or beyond the usual limits of such assays; conditions: source organism: Influenza A virus H3N2
HLA-A*02:01 [5] = test: IEDB peptide-MHC binding, purified MHC/direct/fluorescence; filed as Kd, often an IC50 or EC50 that approximates it; ≥ and ≤ were set here for values at or beyond the usual limits of such assays; conditions: source organism: Influenza A virus (A/Ck/HK/2133.1/2003(H5N1))
HLA-B*08:02 = test: as above; conditions: source organism: Influenza A virus(A/swine/Shandong/fNY/2003(H9N2))
HLA-B*07:02 = test: as above
HLA-C*05:01 = test: as above; conditions: source organism: Influenza A virus H3N2
HLA-B*40:01 = test: as above; conditions: source organism: Influenza A virus (A/Puerto Rico/8/34/Mount Sinai(H1N1))
HLA-B*58:01 = test: as above; conditions: source organism: Influenza A virus (A/Ck/HK/2133.1/2003(H5N1))
HLA-B*15:01 [6] = test: as above; conditions: source organism: Influenza A virus (A/Ck/HK/2133.1/2003(H5N1))
HLA-A*24:02 [7] = test: as above; conditions: source organism: Influenza A virus (A/Ck/HK/2133.1/2003(H5N1))
HLA-B*44:02 = test: as above; conditions: source organism: Influenza A virus (A/Ck/HK/2133.1/2003(H5N1))
HLA-A*11:01 [8] = test: as above; conditions: source organism: Influenza A virus (A/Ck/HK/2133.1/2003(H5N1))
HLA-A*31:01 = test: as above; conditions: source organism: Influenza A virus (A/Ck/HK/2133.1/2003(H5N1))
HLA-B*08:01 = test: as above; conditions: source organism: Influenza A virus (A/Ck/HK/2133.1/2003(H5N1))
HLA-B*27:05 = test: as above; conditions: source organism: Influenza A virus (A/Puerto Rico/8/34/Mount Sinai(H1N1))
HLA-C*14:02 = test: as above
HLA-A*01:01 = test: as above
HLA-A*29:02 [9] = test: as above
HLA-B*15:03 = test: IEDB peptide-MHC binding, purified MHC/competitive/radioactivity; filed as Kd, often an IC50 or EC50 that approximates it; ≥ and ≤ were set here for values at or beyond the usual limits of such assays; conditions: source organism: Vaccinia virus WR
HLA-B*15:01 [10] = test: IEDB peptide-MHC binding, purified MHC/competitive/fluorescence; ≥ and ≤ were set here for values at or beyond the usual limits of such assays; conditions: source organism: Vaccinia virus
HLA-A*02:01 [11] = test: IEDB peptide-MHC binding, purified MHC/competitive/fluorescence; filed as Kd, often an IC50 or EC50 that approximates it; ≥ and ≤ were set here for values at or beyond the usual limits of such assays; conditions: source organism: Entamoeba histolytica HM-1:IMSS
HLA-A*26:01 = test: as above; conditions: source organism: Entamoeba histolytica HM-1:IMSS
HLA-B*51:01 = test: as above; conditions: source organism: Entamoeba histolytica HM-1:IMSS
HLA-A*03:01 [12] = test: as above; conditions: source organism: Entamoeba histolytica HM-1:IMSS
HLA-B*46:01 = test: as above; conditions: source organism: Entamoeba histolytica HM-1:IMSS
HLA-A*02:19 = test: as above; conditions: source organism: Entamoeba histolytica HM-1:IMSS
HLA-B*15:01 [13] = test: as above; conditions: source organism: Entamoeba histolytica HM-1:IMSS
HLA-B*18:01 = test: as above; conditions: source organism: Entamoeba histolytica HM-1:IMSS
HLA-B*57:01 = test: as above; conditions: source organism: Entamoeba histolytica HM-1:IMSS
HLA-B*15:17 = test: as above; conditions: source organism: Entamoeba histolytica HM-1:IMSS
HLA-A*29:02 [14] = test: as above; conditions: source organism: Entamoeba histolytica HM-1:IMSS
HLA-B*27:03 = test: as above; conditions: source organism: Entamoeba histolytica HM-1:IMSS
[15] = source organism: Vaccinia virus
[16] = source organism: Zaire ebolavirus
[17] = source organism: Sudan ebolavirus
[18] = source organism: Mycobacterium tuberculosis variant bovis BCG str. Pasteur 1173P2
[19] = source organism: Mammarenavirus juninense

Sequence: LLQKYPPPR
- pIC50 (HLA-A*02:01 [1]; [15]): ≤ 4.00
- pIC50 (HLA-A*03:01 [2]; [15]): 5.39
- pIC50 (HLA-A*11:01 [3]; [15]): 5.11

Sequence: IQNVPGPHR
- pIC50 (HLA-A*02:01 [1]; [16]): ≤ 3.93
- pIC50 (HLA-A*03:01 [2]; [16]): 5.07
- pIC50 (HLA-A*24:02 [4]; [16]): 5.16
- pIC50 (HLA-A*11:01 [3]; [16]): 6.05

Sequence: ILGSLGLRK
- pIC50 (HLA-A*02:01 [1]; [17]): ≤ 3.85
- pIC50 (HLA-A*03:01 [2]; [17]): 6.06
- pIC50 (HLA-A*11:01 [3]; [17]): 6.66

Sequence: SADPLASLL
- pKd (HLA-B*39:01): 6.81
- pKd (HLA-A*02:01 [5]): ≤ 4.70
- pKd (HLA-B*08:02): ≤ 4.70
- pKd (HLA-B*07:02; source organism: Influenza A virus (A/Ck/HK/2133.1/2003(H5N1))): ≤ 4.70
- pKd (HLA-C*05:01): ≥ 9.00
- pKd (HLA-B*40:01): 5.49
- pKd (HLA-B*58:01): ≤ 4.70
- pKd (HLA-B*15:01 [6]): ≤ 4.70
- pKd (HLA-A*24:02 [7]): ≤ 4.70
- pKd (HLA-B*44:02): ≤ 4.70
- pKd (HLA-A*11:01 [8]): ≤ 4.70
- pKd (HLA-A*31:01): ≤ 4.70
- pKd (HLA-B*08:01): ≤ 4.70
- pKd (HLA-B*27:05): 5.86

Sequence: APINSATAM
- pKd (HLA-C*14:02; [18]): 6.49

Sequence: AFLILPQAK
- pIC50 (HLA-A*03:01 [2]; [16]): 4.70
- pIC50 (HLA-A*24:02 [4]; [16]): 4.57
- pIC50 (HLA-A*11:01 [3]; [16]): 4.85

Sequence: HTEFQTVSF
- pKd (HLA-A*01:01; [19]): 5.64
- pKd (HLA-A*29:02 [9]; [19]): ≤ 4.70

Sequence: SLYPNVCIF
- pKd (HLA-B*15:03): 8.31
- pIC50 (HLA-A*02:01 [1]; [15]): 5.73
- pIC50 (HLA-A*03:01 [2]; [15]): ≤ 3.44
- pIC50 (HLA-B*15:01 [10]): 5.24
- pIC50 (HLA-A*24:02 [4]; [15]): 7.42

Sequence: RTNGASYAY
- pKd (HLA-A*01:01; source organism: Mycobacterium tuberculosis): 6.70
- pKd (HLA-A*29:02 [9]; source organism: Mycobacterium tuberculosis str. Haarlem): ≥ 9.00

Sequence: SIATNLEYK
- pIC50 (HLA-A*03:01 [2]; [15]): 5.40
- pIC50 (HLA-A*11:01 [3]; [15]): 6.37

Sequence: YLHIHPFKI
- pKd (HLA-A*02:01 [11]): 8.21
- pKd (HLA-A*26:01): ≤ 4.70
- pKd (HLA-B*51:01): ≤ 4.70
- pKd (HLA-A*03:01 [12]): ≤ 4.70
- pKd (HLA-B*46:01): ≤ 4.70
- pKd (HLA-A*02:19): 7.17
- pKd (HLA-B*15:01 [13]): ≤ 4.70
- pKd (HLA-B*18:01): ≤ 4.70
- pKd (HLA-B*57:01): ≤ 4.70
- pKd (HLA-B*15:17): ≤ 4.70
- pKd (HLA-A*29:02 [14]): ≤ 4.70
- pKd (HLA-B*27:03): ≤ 4.70

Sequence: APPPFRLPL
- pKd (HLA-C*14:02; source organism: Mycobacterium tuberculosis H37Rv): 6.15
- pKd (HLA-B*07:02; [18]): 7.11
